Measurements taken from patent US20170015742A1 (published 2017).

molecular target: T1, human VEGF-A (human, UniProt P15692-4 27-191, limits assumed); assay: SPR (Biacore), antibody captured by anti-human Fc, VEGF-A injected
T1 construct: also called huVEGF-A
Experimental: For example, approximately 9000 RU of goat anti-human Fc specific polyclonal antibody (Thermo Fisher Scientific Inc., Rockford, Ill.) diluted in 10 mM sodium acetate (pH 4.5) is directly immobilized across a CM5 research grade biosensor chip using a standard amine coupling kit according to manufacturer's instructions and procedures at 25 μg/ml. Unreacted moieties on the biosensor surface were blocked with ethanolamine. For kinetic analysis, rate equations derived from the 1:1 Langmuir binding model were fitted simultaneously to multiple antigen injections (using global fit analysis) with the use of Scrubber 2 (BioLogic Software), Biacore Biaevaluation 4.0.1 software or Biacore T100 Evaluation software. Purified antibodies or DVD-Ig molecules were diluted in running buffer for capture across goat anti-human Fc reaction surfaces. Antibodies or DVD-Ig molecules to be captured as a ligand (1 μg/ml) were injected over reaction matrices at a flow rate of 10 μl/minute. During the assay, all measurements were referenced against the capture surface alone (i.e., with no captured antibody or DVD-Ig molecule). […] The equilibrium dissociation constant KD (M) of the reaction between antibodies and the target antigen was then calculated from the kinetic rate constants by the following formula: KD=Koff/Kₒₙ. Binding was recorded as a function of time and kinetic rate constants were calculated.

T1 sequence (P15692 other isoform, or with tags, fused parts or gaps limits assumed): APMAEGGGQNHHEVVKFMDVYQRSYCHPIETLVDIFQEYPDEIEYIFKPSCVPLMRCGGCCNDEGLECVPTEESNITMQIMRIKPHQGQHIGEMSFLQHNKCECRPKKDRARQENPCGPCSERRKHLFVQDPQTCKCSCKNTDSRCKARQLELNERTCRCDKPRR

Row | Kd | kon | Binder
1 | 7.6 pM | 2.2e+07 M⁻¹ s⁻¹ | hBDB-4G8.13 (antibody, V domains shown, Humanized IgG made from pHybE vectors in HEK293 cells) VH: EIQLVQSGTEVKKPGESLKISCKASGYTFTNYGMYWVKQMPGKGLEYMGWINTETGKPTYADDFKGRFTFSLDKSFNTAFLQWSSLKASDTAMYFCARTNYYYRSYIFYFDYWGQGTMVTVSS VL: ETVLTQSPATLSVSPGERATLSCRASESVSTHMHWYQQKPGQAPRLLIYGASNLESGVPARFSGSGSGTDFTLTISSLQSEDFAVYFCQQSWNDPFTFGQGTRLEIK
2 | 1.6 pM | 7.6e+06 M⁻¹ s⁻¹ | hBEW-9A8.20 (antibody, V domains shown, Humanized IgG made from pHybE vectors in HEK293 cells) VH: EIQLVQSGAEVKKPGASVKVSCKASGYTFTNYGMYWVKQAPGQGLEYMGWINTETGKPIYADDFKGRFTFTLDTSTSTAYMELRSLRSDDTAVYYCARVDYDGSFWFAYWGQGTLVTVSS VL: ETVLTQSPATLSLSPGERATLSCRASESVSTVIHWYQQKPGQQPRLLIHGASNLESGVPARFSGSGSGTDFTLTISSLEPEDFAVYFCQQHWNDPPTFGQGTKLEIK
3 | 3.7 pM | 1.5e+07 M⁻¹ s⁻¹ | hBDB-4G8.14 (antibody, V domains shown, Humanized IgG made from pHybE vectors in HEK293 cells) VH: EIQLVQSGGGVVQPGGSLRLSCAASGYTFTNYGMYWVKQAPGKGLEYMGWINTETGKPTYADDFKGRFTFSLDTSKSTAYLQLNSLRAEDTAVYFCARTNYYYRSYIFYFDYWGQGTLVTVSS VL: DTVLTQSPSTLSASPGERATISCRASESVSTHMHWYQQKPGQAPKLLIYGASNLESGVPSRFSGSRSGTDFTLTISSLQPEDFAVYFCQQSWNDPFTFGQGTKVEIK
4 | 4.4 pM | 2e+07 M⁻¹ s⁻¹ | hBDB-4G8.15 (antibody, V domains shown, Humanized IgG made from pHybE vectors in HEK293 cells) VH: EVQLVESGGGLVQPGGSLRLSCAASGYTFTNYGMYWVKQAPGKGLEYMGWINTETGKPTYADDFKGRFTFSLDTSKSTAYLQMNSLRAEDTAVYFCARTNYYYRSYIFYFDYWGQGTLVTVSS VL: DTQLTQSPSSLSASVGDRVTISCRASESVSTHMHWYQQKPGKAPKLLIYGASNLESGVPSRFSGSGSGTDFTLTISSLQPEDFATYFCQQSWNDPFTFGQGTKVEIK
5 | 47 pM | 1.8e+07 M⁻¹ s⁻¹ | hBDB-4G8.8 (antibody, V domains shown, Humanized IgG made from pHybE vectors in HEK293 cells) VH: EVQLVQSGAEVKKPGASVKVSCKASGYTFTNYGMYWVRQAPGQGLEWMGWINTETGKPTYADDFKGRVTMTTDTSTSTAYMELRSLRSDDTAVYYCARTNYYYRSYIFYFDYWGQGTMVTVSS VL: ATQLTQSPSLSASVGDRVTITCRASESVSTHMHWYQQKPGKQPKLLIYGASNLESGVPSRFSGSGSGTDFTLTISSLQPEDFATYFCQQSWNDPFTFGQGTKLEIK
6 | 1.3 pM | 2.6e+07 M⁻¹ s⁻¹ | hBDB-4G8.11 (antibody, V domains shown, Humanized IgG made from pHybE vectors in HEK293 cells) VH: EIQLVQSGAEVKKPGASVKVSCKASGYTFTNYGMYWVRQAPGQGLEYMGWINTETGKPTYADDFKGRFTFTLDTSTSTAYMELRSLRSDDTAVYFCARTNYYYRSYIFYFDYWGQGTMVTVSS VL: ATQLTQSPSLSASVGDRVTITCRASESVSTHMHWYQQKPGKQPKLLIYGASNLESGVPSRFSGSGSGTDFTLTISSLQPEDFATYFCQQSWNDPFTFGQGTKLEIK
7 | 1.2 pM | 2.6e+07 M⁻¹ s⁻¹ | hBDB-4G8.12 (antibody, V domains shown, Humanized IgG made from pHybE vectors in HEK293 cells) VH: EIQLVQSGAEVKKPGASVKVSCKASGYTFTNYGMYWVRQAPGQGLEYMGWINTETGKPTYADDFKGRFTFTLDTSTSTAYMELRSLRSDDTAVYFCARTNYYYRSYIFYFDYWGQGTMVTVSS VL: DTVLTQSPATLSLSPGERATLSCRASESVSTHMHWYQQKPGQAPRLLIYGASNLESGVPARFSGSGSGTDFTLTISSLEPEDFAVYFCQQSWNDPFTFGQGTKLEIK
8 | 62 pM | 1.4e+07 M⁻¹ s⁻¹ | hBDB-4G8.9 (antibody, V domains shown, Humanized IgG made from pHybE vectors in HEK293 cells) VH: EVQLVQSGAEVKKPGASVKVSCKASGYTFTNYGMYWVRQAPGQGLEWMGWINTETGKPTYADDFKGRVTMTTDTSTSTAYMELRSLRSDDTAVYYCARTNYYYRSYIFYFDYWGQGTMVTVSS VL: DTVLTQSPATLSLSPGERATLSCRASESVSTHMHWYQQKPGQAPRLLIYGASNLESGVPARFSGSGSGTDFTLTISSLEPEDFAVYFCQQSWNDPFTFGQGTKLEIK
9 | 5.8 pM | 1.8e+07 M⁻¹ s⁻¹ | hBDB-4G8.1 (antibody, V domains shown, Humanized IgG made from pHybE vectors in HEK293 cells) VH: EVQLVQSGSELKKPGASVKVSCKASGYTFTNYGMYWVRQAPGQGLEWMGWINTETGKPTYADDFKGRFVFSLDTSVSTAYLQISSLKAEDTAVYYCARTNYYYRSYIFYFDYWGQGTMVTVSS VL: AIQLTQSPSSLSASVGDRVTITCRASESVSTHMHWYQQKPGKAPKLLIYGASNLESGVPSRFSGSGSGTDFTLTISSLQPEDFATYYCQQSWNDPFTFGQGTKLEIK
10 | 74 pM | 1.5e+07 M⁻¹ s⁻¹ | hBEW-9A8.11 (antibody, V domains shown, Humanized IgG made from pHybE vectors in HEK293 cells) VH: EVQLVQSGAEVKKPGASVKVSCKASGYTFTNYGMYWVRQAPGQGLEWMGWINTETGKPIYADDFKGRVTMTTDTSTSTAYMELRSLRSDDTAVYYCARVDYDGSFWFAYWGQGTLVTVSS VL: DIQMTQSPSSLSASVGDRVTITCRASESVSTVIHWYQQKPGKAPKLLIYGASNLESGVPSRFSGSGSGTDFTLTISSLQPEDFATYYCQQHWNDPPTFGQGTKLEIK
11 | 4.8 pM | 1e+07 M⁻¹ s⁻¹ | hBDB-4G8.3 (antibody, V domains shown, Humanized IgG made from pHybE vectors in HEK293 cells) VH: EVQLVQSGSELKKPGASVKVSCKASGYTFTNYGMYWVRQAPGQGLEWMGWINTETGKPTYADDFKGRFVFSLDTSVSTAYLQISSLKAEDTAVYYCARTNYYYRSYIFYFDYWGQGTMVTVSS VL: DTVLTQSPATLSLSPGERATLSCRASESVSTHMHWYQQKPGQAPRLLIYGASNLESGVPARFSGSGSGTDFTLTISSLEPEDFAVYFCQQSWNDPFTFGQGTKLEIK
12 | 3.6 pM | 1.7e+07 M⁻¹ s⁻¹ | hBDB-4G8.2 (antibody, V domains shown, Humanized IgG made from pHybE vectors in HEK293 cells) VH: EVQLVQSGSELKKPGASVKVSCKASGYTFTNYGMYWVRQAPGQGLEWMGWINTETGKPTYADDFKGRFVFSLDTSVSTAYLQISSLKAEDTAVYYCARTNYYYRSYIFYFDYWGQGTMVTVSS VL: ATQLTQSPSLSASVGDRVTITCRASESVSTHMHWYQQKPGKQPKLLIYGASNLESGVPSRFSGSGSGTDFTLTISSLQPEDFATYFCQQSWNDPFTFGQGTKLEIK
13 | 34 pM | 3.7e+07 M⁻¹ s⁻¹ | hBDB-4G8.7 (antibody, V domains shown, Humanized IgG made from pHybE vectors in HEK293 cells) VH: EVQLVQSGAEVKKPGASVKVSCKASGYTFTNYGMYWVRQAPGQGLEWMGWINTETGKPTYADDFKGRVTMTTDTSTSTAYMELRSLRSDDTAVYYCARTNYYYRSYIFYFDYWGQGTMVTVSS VL: AIQLTQSPSSLSASVGDRVTITCRASESVSTHMHWYQQKPGKAPKLLIYGASNLESGVPSRFSGSGSGTDFTLTISSLQPEDFATYYCQQSWNDPFTFGQGTKLEIK
14 | 8.1 pM | 2.7e+07 M⁻¹ s⁻¹ | hBDB-4G8.10 (antibody, V domains shown, Humanized IgG made from pHybE vectors in HEK293 cells) VH: EIQLVQSGAEVKKPGASVKVSCKASGYTFTNYGMYWVRQAPGQGLEYMGWINTETGKPTYADDFKGRFTFTLDTSTSTAYMELRSLRSDDTAVYFCARTNYYYRSYIFYFDYWGQGTMVTVSS VL: AIQLTQSPSSLSASVGDRVTITCRASESVSTHMHWYQQKPGKAPKLLIYGASNLESGVPSRFSGSGSGTDFTLTISSLQPEDFATYYCQQSWNDPFTFGQGTKLEIK
15 | 1.4 pM | 2.6e+07 M⁻¹ s⁻¹ | hBDB-4G8.6 (antibody, V domains shown, Humanized IgG made from pHybE vectors in HEK293 cells) VH: EIQLVQSGSELKKPGASVKVSCKASGYTFTNYGMYWVRQAPGQGLEYMGWINTETGKPTYADDFKGRFVFSLDTSVSTAYLQISSLKAEDTAVYFCARTNYYYRSYIFYFDYWGQGTMVTVSS VL: DTVLTQSPATLSLSPGERATLSCRASESVSTHMHWYQQKPGQAPRLLIYGASNLESGVPARFSGSGSGTDFTLTISSLEPEDFAVYFCQQSWNDPFTFGQGTKLEIK
16 | 15 pM | 9.6e+06 M⁻¹ s⁻¹ | hBEW-9A8.12 (antibody, V domains shown, Humanized IgG made from pHybE vectors in HEK293 cells) VH: EVQLVQSGAEVKKPGASVKVSCKASGYTFTNYGMYWVRQAPGQGLEWMGWINTETGKPIYADDFKGRVTMTTDTSTSTAYMELRSLRSDDTAVYYCARVDYDGSFWFAYWGQGTLVTVSS VL: DTQLTQSPSSLSASVGDRVTITCRASESVSTVIHWYQQKPGKQPKLLIHGASNLESGVPSRFSGSGSGTDFTLTISSLQPEDFATYFCQQHWNDPPTFGQGTKLEIK
17 | 5.5 pM | 2.7e+07 M⁻¹ s⁻¹ | hBDB-4G8.4 (antibody, V domains shown, Humanized IgG made from pHybE vectors in HEK293 cells) VH: EIQLVQSGSELKKPGASVKVSCKASGYTFTNYGMYWVRQAPGQGLEYMGWINTETGKPTYADDFKGRFVFSLDTSVSTAYLQISSLKAEDTAVYFCARTNYYYRSYIFYFDYWGQGTMVTVSS VL: AIQLTQSPSSLSASVGDRVTITCRASESVSTHMHWYQQKPGKAPKLLIYGASNLESGVPSRFSGSGSGTDFTLTISSLQPEDFATYYCQQSWNDPFTFGQGTKLEIK
18 | 1.6 pM | 2.5e+07 M⁻¹ s⁻¹ | hBDB-4G8.5 (antibody, V domains shown, Humanized IgG made from pHybE vectors in HEK293 cells) VH: EIQLVQSGSELKKPGASVKVSCKASGYTFTNYGMYWVRQAPGQGLEYMGWINTETGKPTYADDFKGRFVFSLDTSVSTAYLQISSLKAEDTAVYFCARTNYYYRSYIFYFDYWGQGTMVTVSS VL: ATQLTQSPSLSASVGDRVTITCRASESVSTHMHWYQQKPGKQPKLLIYGASNLESGVPSRFSGSGSGTDFTLTISSLQPEDFATYFCQQSWNDPFTFGQGTKLEIK
19 | 820 pM | 1e+07 M⁻¹ s⁻¹ | hBEW-9A8.9 (antibody, V domains shown, Humanized IgG made from pHybE vectors in HEK293 cells) VH: EVQLVQSGAEVKKPGASVKVSCKASGYTFTNYGMYWVRQAPGQGLEWMGWINTETGKPIYADDFKGRVTMTTDTSTSTAYMELRSLRSDDTAVYYCARVDYDGSFWFAYWGQGTLVTVSS VL: EIVLTQSPDFQSVTPKEKVTITCRASESVSTVIHWYQQKPDQSPKLLIKGASNLESGVPSRFSGSGSGTDFTLTINSLEAEDAATYYCQQHWNDPPTFGQGTKLEIK
